Data published in US20020022718A1, “Genes identified as required for proliferation of E. coli” (priority 1999, published 2002).

Tested on: Klebsiella pneumoniae
Assay: Growth inhibition by induced E. coli antisense RNA in Klebsiella pneumoniae
Format: cell-based
Design: key: +: a positive in Table V below means that at least 10 fold more cells were required to observe a colony on the induced plate than on the non-induced plate; −: If there was no effect of antisense RNA expression in a microorganism, the clone is minus in Table V below
Details: antisense RNA expression induced with IPTG, serial dilution plating
Procedure: To study the effects of transcriptional induction in liquid medium, growth curves were carried out by back diluting cultures 1:200 into fresh media with or without 1 mM IPTG and measuring the OD450 every 30 minutes (min). To study the effects of transcriptional induction on solid medium, 10^2, 10^3, 10^4, 10^5, 10^6, 10^7 and 10^8 fold dilutions of overnight cultures were prepared. Aliquots of from 0.5 to 3 μl of these dilutions were spotted on selective agar plates with or without 1 mM IPTG. After overnight incubation, the plates were compared to assess the sensitivity of the clones to IPTG.
Molecule No. EcXA190, encoding a portion of the b3052 gene of Escherichia coli, was either transformed directly into Enterobacter cloacae, Salmonella typhimurium and/or Klebsiella pneumoniae or subcloned into an expression vector functional in these species and the subclones transformed into these organisms. Suitable expression vectors are well known in the art. These expression vectors were introduced into Enterobacter cloacae, Salmonella typhimurium and/or Klebsiella pneumoniae cells that were then assayed for growth inhibition according to the method of Example 1. After growth in liquid culture, cells were plated at various serial dilutions and a score determined by calculating the log difference in growth for INDUCED vs. UNINDUCED antisense RNA expression as determined by the maximum 10 fold dilution at which a colony was observed. If there was no effect of antisense RNA expression in one organism, the clone is given a score of zero “0” in that organism. In contrast, a score of “8” means that 10^8 times more cells were required to observe a colony formed on the induced state than in the non-induced state under the conditions used and in that organism.
In addition, the above methods were validated using other antisense nucleic acids which inhibit the growth of E. coli which were identified using methods similar to those described above. Expression vectors which inhibited growth of E. coli upon induction of antisense RNA expression with IPTG were transformed directly into Enterobacter cloacae, Klebsiella pneumonia or Salmonella typhimurium. The transformed cells were then assayed for growth inhibition according to the method of Example 1. After growth in liquid culture, cells were plated at various serial dilutions and a score determined by calculating the log difference in growth for INDUCED vs. UNINDUCED antisense RNA expression as determined by the maximum 10 fold dilution at which a colony was observed. If there was no effect of antisense RNA expression in a microorganism, the clone is minus in Table V below. In contrast, a positive in Table V below means that at least 10 fold more cells were required to observe a colony on the induced plate than on the non-induced plate under the conditions used and in that microorganism.

Molecule	Sensitivity of K. pneumoniae to antisense nucleic acid (growth inhibition, induced vs. uninduced)
EcXA176: antisense clone insert to E. coli yjdH (nucleic acid, listed as Escherichia coli) antisense: TAGTTATTGGCTGTTTTGAGAATGTAATCTTCCAACTGCTTATAACTCTTCAGATGCAATAATCCGAGAATCACATGCAATTTATTCATAAATTCGTGGGATCGTTCACGAAGTGCGTCAGCATAGTTGACCAGACCGTCGAGTCGCTGCATCAGTTTACGTA	−
EcXA164: antisense clone insert to E. coli glpC (nucleic acid, listed as Escherichia coli) antisense: TGTCGACATTCAGCACTTCCGGGTATTCGTCGCGCAGGGCAAATGTACAGGTTGAGGAGGTG	−
EcXA166: antisense clone insert to E. coli yihE (nucleic acid, listed as Escherichia coli) antisense: AAACGCATGGCGCGTAAAGGTTCAATCAGTCCGATTTCAGCGGTGTCGAACTCGCTAAATTCTTCA	−
EcXA168: antisense clone insert to E. coli b1721 (nucleic acid, listed as Escherichia coli) antisense: GAGGAACCGTGTGACACACAAAGGGTGATTATTTTCCATTGCGGCGTATAATCCTGGCTCACCATCATGTATTTTCATGGCTAAAATACTCATCACCAGTTTTTTGTTTAAAAGCTCTTGTGCTATTGGAGTGGTTAATGCATTCAGAAAGATATCGATTATTTCATCGAATCCATACAACATGGAGATATAAAGTCCAGGTGTTTCGTT	−
EcXA175: antisense clone insert to E. coli pykA (nucleic acid, listed as Escherichia coli) antisense: TAGCTTCTTCCACATTGTCGAACTGAACGTCCAGACGGTGTTTAGAAACGTTGATGCTCGGGATTTTTTCCGCACCCAGGCAAACGCGCGCCATGGCTGCAACGGTTTCTGACGGATACTG	−
EcXA162: antisense clone insert to E. coli yjgV (nucleic acid, listed as Escherichia coli) antisense: AAAGGTTCGGCAAAAGCCATAACCTTTTCGTCAGCTTTGGCCGGATAAGGGACACATTGCGACGTTTCGACCATTTTATAACGGGTAAAACCACCATCAACATGAGGGAAATACATGGCACTGCCAAAAAAACGCATATCTGTACACTGATTCTCGTTATGTTCAATGCAGTATTTGCAGTGACCGCACGGTTTAGACGGATTAATGGCTACCGTTTGCCCTTCATGTAATTCTGA	−
EcXA173: antisense clone insert to E. coli yhhJ (nucleic acid, listed as Escherichia coli) antisense: GCCACGCCCAGCATAAACAGCGGGATCGAGCCTTCAATCGGTACGCCCAGTACACCTTTCACCATCAGCACCAGCGATAATCC	−
EcXA159: antisense clone insert to E. coli b0482 (nucleic acid, listed as Escherichia coli) antisense: AAAAAATGAAATTCCTCTTTGACGGGCCAATAGCGATATTGGCCATTTTTTTAGCGCAACATTTGCGGCAAATTCCCTTCTCCATACAGGTGTAGTGCACCGACCGCGACCACATATCGCCCCGGCGGCATGGCGCGTAATTTATCCCGCCAGGCGAGATTTCGCTGATGCATCAGCACATCGTACAGCGACTGACTGAACGTATTGGGCAGCGTTATATCATTATTTTGCGGCGGTGCATTCAGCCACCAGCTCATCATTTGTTGCAGCAACCGTGCGTTGGTATGCCAGTGGGTCAGCGTATCGTCCAGCAGCGCCAGTCCTTTGTCAGGGAGCTGGAGCAACATGGCAATCTGGTTTTCAGCCCCTTCCAGTTCAATCACGGGTTTATGTTGTTGCTTC	−
EcXA158: antisense clone insert to E. coli b2519 (nucleic acid, listed as Escherichia coli) antisense: GCTGGTGCCCGTTTTCCATGCCAGTGGGGCGACGCGCGGCAAGGCACTATCCGGCAAGGGTTGCGCTTCATCAGCCATAATCCGGCGAATGATCCACGCCGCCCCCGACGACATTAAAGGCCGTTCAAGCAGCGGATCGTCAGGCTGTAAGCGCAATTTGCCTGCCTTGCCGTGGCGAGCAAACGCGGTA	−
EcXA169: antisense clone insert to E. coli rpsE (nucleic acid, listed as Escherichia coli) antisense: AGAGCTGTGAAGGAGAAAATACGACCACCTTTAACGGTTTTAGATACGCGGTTTACCGCGATCAGCTTTTCCTGCAGTTCGCCAGCTTGTTTTTCGATGTGAGCCATCTTACACCTCT	−
EcXA156: antisense clone insert to E. coli yihN (nucleic acid, listed as Escherichia coli) antisense: AAATAGACCGGCATACTTTCGTGCGGCAGCATAATCAACAGTACGAGCGCAGCGGTACTAATGATAAAGGTGTAGCATAGATATTTACTTGGCGATTTCAGGATCTTATCTGAAATCATGCCACCAATCGGTCCACCAATCATTTTCAGACAGT	−
EcXA154: antisense clone insert to E. coli b1983 (nucleic acid, listed as Escherichia coli) antisense: TTCTGTAATCAGAAAAAGAAGAACTGGAATTTTAATAAATATTATTTCTCTGGGAACGGGGGGGTATAATCAATATGACGAGTTGAATATTATATTTTTTATAAGAATTATATGAGATTAAAGAAATCTGCCGTAAAGACAGATTTCTTTAAAAGATAATTAGAGATTTGCGACGTTATGATAAACTTTTTGTACATCGTCGTCATCTTCAAG	−
EcXA167: antisense clone insert to E. coli gatB (nucleic acid, listed as Escherichia coli, misc_feature (1)...(143): n = A,T,C or G, antisense clone insert to E. coli gatB) antisense: TATAGGGGNCTATTTCATTAACCCGACACTGGATTAATTCAACAGGAATATTATGATTCTGACACAACTCTTTAATTTCTTCCGCCGCCATCGTAGAGGTCGCAACCGCGCCTCCGCAAGCGACAATAATCTTGCGTTTCATA	−
EcXA163: antisense clone insert to E. coli yidC (nucleic acid, listed as Escherichia coli) antisense: GAAGAGATGTTCAGGTTTTCGTTATCGGCAATGGTATCGAACTTGTATTTCTCATACTTCTCGTCAGGCGTGGAGTACGCCGCGCCACGGAA	−
EcXA165: antisense clone insert to E. coli ybeJ (nucleic acid, listed as Escherichia coli) antisense: ACTTATCAAACCATTTTTCCGCTTCACCGGAGGTCTGCACCTGAGCGATGGTGTCATCCATCAGCTTTTTGA	−
EcXA157: antisense clone insert to E. coli rpsC, rplV (nucleic acid, listed as Escherichia coli) antisense: TCCTTAGTCAGGTACTGACGTACTTTAAAATCGCTGTCCAGGTTGTCAGCGAATTCTTTGGTGTTCGCAAACCAGGTAGAGTTCCATGGTTTTACAATACCCAGGCGAATACCATTAGGATGTACTTTCTGACCCATTGCTAGTCTCCAGAGTCTCAGCGATCGGACACAACCACAGTGATGTGGCTGGTG	−
EcXA174: antisense clone insert to E. coli endA (nucleic acid, listed as Escherichia coli) antisense: GCCNGGCGGGAACCGACATGTTCCCACTCTACGCCGGCTGGCGCGGTTTTCATTTTTGCGCACCTGATAGCCGCACGATTGCAGATCAACAACGCCTTTTTTG	−
EcXA171: antisense clone insert to E. coli b0876 (nucleic acid, listed as Escherichia coli) antisense: AGCGCCGGTAACGCCCGTTAAATGTTCTCGTTCGGCTTCCCGATCGTTATTCAACAGGCTGCGTACCGTAGCGGCATATTTCTTCCCTGCTTCATCGCCATC	−
